Source: US7410949
Primed or numbered codes have the meaning given here. [ ]: non-standard residue; d: D form. Pqa″ = not defined here

Experiments:
Y4R = test: cell-based or functional assay
Y1R = test: cell-based or functional assay
Sequence of Y1R (P25929 whole entry): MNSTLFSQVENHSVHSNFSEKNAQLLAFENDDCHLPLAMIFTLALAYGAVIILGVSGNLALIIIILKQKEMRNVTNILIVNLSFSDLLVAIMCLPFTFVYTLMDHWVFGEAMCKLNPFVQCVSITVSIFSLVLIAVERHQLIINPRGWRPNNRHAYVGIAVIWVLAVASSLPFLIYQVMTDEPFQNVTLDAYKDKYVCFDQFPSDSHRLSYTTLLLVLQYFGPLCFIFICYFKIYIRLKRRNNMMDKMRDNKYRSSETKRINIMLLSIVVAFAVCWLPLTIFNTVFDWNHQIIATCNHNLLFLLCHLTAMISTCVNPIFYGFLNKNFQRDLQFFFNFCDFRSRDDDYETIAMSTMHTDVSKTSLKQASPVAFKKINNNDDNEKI

B1: H-Ile-Lys-Pqa-Arg-His-Tyr-Ala-Asn-Leu-Val-Thr-Arg-Gln-Arg-Tyr-NH2 (peptide)
peptide: H-IK[Pqa″]RHYANLVTRQRY-NH2
modifications: reading uncertain; also: printed as H-Ile-Lys-Pqa-Arg-His-Tyr-Ala-Asn-Leu-Val-Thr-Arg-Gln-Arg-Tyr-NH2
Y4R EC50(nM) FLIPR (Y4R): > 5000 nM
Y1R EC50(nM) FLIPR (Y1R): > 5000 nM

B2: H-Ile-Lys-Pqa-Arg-His-Ala-Leu-Asn-Leu-Val-Thr-Arg-Gln-Arg-Tyr-NH2 (peptide)
peptide: H-IK[Pqa″]RHALNLVTRQRY-NH2
modifications: reading uncertain; also: printed as H-Ile-Lys-Pqa-Arg-His-Ala-Leu-Asn-Leu-Val-Thr-Arg-Gln-Arg-Tyr-NH2
Y4R EC50(nM) FLIPR (Y4R): > 5000 nM
Y1R EC50(nM) FLIPR (Y1R): > 5000 nM

B3: H-Ile-Lys-Pqa-Arg-His-Trp-Leu-Asn-Leu-Val-Thr-Arg-Gln-Arg-Tyr-NH2 (peptide)
peptide: H-IK[Pqa″]RHWLNLVTRQRY-NH2
modifications: reading uncertain; also: printed as H-Ile-Lys-Pqa-Arg-His-Trp-Leu-Asn-Leu-Val-Thr-Arg-Gln-Arg-Tyr-NH2
Y4R EC50(nM) FLIPR (Y4R): > 5000 nM

B4: H-Ile-Lys-Pqa-Ala-His-Trp-Leu-Asn-Leu-Val-Thr-Arg-Gln-Arg-Tyr-NH2 (peptide)
peptide: H-IK[Pqa″]AHWLNLVTRQRY-NH2
modifications: reading uncertain; also: printed as H-Ile-Lys-Pqa-Ala-His-Trp-Leu-Asn-Leu-Val-Thr-Arg-Gln-Arg-Tyr-NH2
Y4R EC50(nM) FLIPR (Y4R): > 5000 nM
